Assay results taken from US20250381223A1 (UTC THERAPEUTICS SHANGHAI, published 2025).
Blank lines part the entries; values can stand above or below the binder they belong to.

Legend:
[1] = target: T1, CD40-Fc (human, UniProt P25942); assay: flow cytometry of T cells electroporated with 2 µg M12 CAR mRNA alone; CD40-Fc + PE-anti-Fc
T1 construct: part fused to Fc; staining reagent of the flow cytometry; also called recombinant human CD40-Fc antigen protein

[2] = target: T2, mesothelin-Fc recombinant protein (human, UniProt Q13421 296-580, limits assumed); assay: flow cytometry, T cells with CAR mRNA, mesothelin-Fc + PE-anti-IgG-Fc; Control 0.63
T2 construct: construct not described; also called Meso-Fc; not shown: Fc part
Protocol: Mesothelin CAR mRNA obtained in Example 26 above was introduced into A549 tumor cells and T cells by electroporation, and the procedures are as follows: A549 tumor cells and T cells were collected and washed 3 times with the Opti-MEM medium. The cell pellet was resuspended in the Opti-MEM medium and the cell concentration was adjusted to 1×10e7 cells/mL. 10 μg of RNA was aliquoted into 1.5-mL EP tubes, 100 μL of T cells or A549 cells were added, followed by mixing well. 100 μL of cells mixed with RNA were added to the BTX electroporation cuvette and slight tapping was performed to avoid air bubbles. Electroporation was performed using a BTX instrument under the following parameters: for T cells: 500 V voltage, 0.7 ms; for A549 tumor cells: 300 V voltage, 0.5 ms. The cells were then transferred to a pre-warmed medium and cultured at 37° C. The binding of mesothelin CART cells to the mesothelin-Fc recombinant protein was determined by FACS staining. […] T cells without CAR molecules served as the control (“Mock”).

[3] = target: T3, CD40-Fc ( for this staining reagent …, UniProt P25942); assay: flow cytometry, lentivirus-transduced T cells, CD40-Fc + PE-anti-Fc
T3 construct: soluble Fc fusion; Staining reagent, detected with PE-anti-Fc
Protocol: (§1) The transduction efficiency of the CAR-T cells was detected as follows: […] CAR-T cells were plated into each well of a 96-well plate, and the plate was washed once with PBS. 50 μL of Meso-Fc or CD40-Fc protein at a final concentration of 2 μg/mL was added to each well, and the mixture was incubated for 30 min at 4° C. The cells were washed 3 times with PBS, and 50 μL of PE-anti-Fc antibody at a final concentration of 1 μg/mL was added to each well. The mixture was incubated at 4° C. for 30 min. After being washed twice with PBS, the cells were detected by a flow cytometer.

[4] = target: T3, CD40-Fc; assay: flow cytometry, lentivirus-transduced T cells, CD40-Fc 2 µg/mL + PE-anti-Fc; UTD 0.66, M12 1.16
Protocol: as §1

T2 sequence (Q13421 other isoform, or with tags, fused parts or gaps limits assumed): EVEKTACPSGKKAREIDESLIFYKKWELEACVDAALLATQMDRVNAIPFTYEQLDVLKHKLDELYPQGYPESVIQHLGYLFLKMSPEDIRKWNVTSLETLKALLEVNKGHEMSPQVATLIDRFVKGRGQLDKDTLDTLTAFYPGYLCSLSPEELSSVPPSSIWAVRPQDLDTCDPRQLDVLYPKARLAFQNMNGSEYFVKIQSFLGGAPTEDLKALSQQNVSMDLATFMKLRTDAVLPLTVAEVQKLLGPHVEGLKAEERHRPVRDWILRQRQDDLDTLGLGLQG

- binding result [1]: no binding
- percent of cells in the gate [2]: 86.5%
- binding result [3]: no binding (tested: 2 µg/mL)
B1: anti-mesothelin scFv-M12 (scFv)
scFv: AIRLTQSPSLLSASVGDRVTVTCRASQGGGNYLAWYQQKPGKAPKLLIYGASKLQSGVPSRFSGSGSGTEFTLTISSLQPEDFATYYCQQLNSYPVTFGQGTKVDIKGGGGSGGGGSGGGGSEVQLVESGAEVKKPGASVKVSCKASGYTFTTYYIHWVRQAPGQGLEWMGIINPSSGSTTYTQKFQGRVTMTRDTSTSTVYIELSGLRSEDTAVYYCARGETLRGYFDYWGQGTLVTVSS
notes: On mRNA-electroporated T cells as CAR; also called Meso-CAR (M12)

- percent of cells in the gate [4]: 39.8%
B2: A40C2828 (other)
membrane fusion protein with an anti-CD40 antibody part: QVQLVQSGAEVKKPGASVKVSCTASGFNIKDYYVHWVKQAPGQGLEWMGRIDPEDGDSKYAPKFQGKATMTADTSTSTVYMELSSLRSEDTAVYYCTTSYYVGTYGYWGQGTLVTVSSGGGGSGGGGSGGGGSDIQMTQSPSSLSASVGDRVTITCSASSSVSYMLWFQQKPGKAPKLLIYSTSNLASGVPSRFSGSGSGTDFTLTISSLQPEDFATYYCQQRTFYPYTFGGGTKVEIKRTASIEVMYPPPYLDNEKSNGTIIHVKGKHLCPSPLFPGPSKPFWVLVVVGGVLACYSLLVTVAFIIFWVRSKRSRLLHSDYMNMTPRRPGPTRKHYQPYAPPRDFAAYRS
notes: also called new A40C28; New A40C28
